This data set in a line: protein stability index of a GFP-peptide fusion (yeast GPS) (PSI 1-4); higher = more stable; sorted into four equal gates, so the index is relative within each strain. A digest of the protocol:
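Tiled 17-residue peptides from yeast proteins were fused downstream of GFP on a plasmid that also expresses Cherry, and the pooled library was carried in yeast. Mid-log cultures grown in leucine-free medium were sorted into four equal gates by GFP/Cherry fluorescence ratio. Plasmids from each gate were PCR-amplified and Illumina-sequenced, and reads were assigned to strains by barcodes. Each peptide's protein stability index is the sum, over gates, of the gate's read frequency multiplied by its gate number.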

± gives the uncertainty stated by the source.

The values below come from the supplement of paper PMC9732359.

As for IDEKSQFVETIVSKSIE [RPN2], the protein stability index is, setting by setting: (doa10∆) 1.68 ± 0.1; (pdr5∆) 2.19 ± 0.1; (san1∆) 1.64 ± 0.096; (ubr1∆) 1.98 ± 0.089.
For IDETMMDKPLNFRILKS [SRB5], in that order: 2.95 ± 0.14, 3.09 ± 0.13, 2.76 ± 0.087 and 2.79 ± 0.13.
Regarding IDLEAPVQIVKRITQIT [RPS20], the protein stability index amounted to 2.15 ± 0.12 (doa10∆), 2.23 ± 0.2 (pdr5∆), 1.78 ± 0.14 (san1∆) and 2.2 ± 0.094 (ubr1∆).
On to IDMHLIYGVEWLIEGKL [YDL116W/NUP84], for which the protein stability index came to 2.64 ± 0.17 (doa10∆), 2.58 ± 0.093 (pdr5∆) and 2.33 ± 0.099 (ubr1∆).
Consider IDMIADENGTNSAIANE [RPC37], for which the protein stability index (ubr1∆) was found to be 3.17 ± 0.11.
In the case of IDNYITNSVRLFEVNPS [SRP21], the protein stability index amounted to 2.61 ± 0.1 (doa10∆), 2.78 ± 0.088 (pdr5∆), 2.54 ± 0.091 (san1∆) and 2.28 ± 0.12 (ubr1∆).
As to IDQAHVSEITKLKFFPS [RPN14], the protein stability index runs as follows: (doa10∆) 3.12 ± 0.077; (pdr5∆) 3.01 ± 0.071; (san1∆) 3.12 ± 0.054; (ubr1∆) 3.28 ± 0.053.
IDREGNARKVVGASVVV [RPS12]: the protein stability index (doa10∆) was determined as 2.65 ± 0.18, the protein stability index (pdr5∆) is 2.75 ± 0.25 and the protein stability index (ubr1∆) worked out at 3.31 ± 0.22.
Sequence IDRGLFRSLFFRSYMDQ [RPB2] came in with a protein stability index (doa10∆) of 3 ± 0.27, a protein stability index (pdr5∆) of 2.88 ± 0.27, a protein stability index (san1∆) of 1.86 ± 0.25 and a protein stability index (ubr1∆) of 2.94 ± 0.084.
For IDSINGPDTKGQLEDFD [SMC3], in that order: 3.47 ± 0.14, 3.29 ± 0.11, 3.18 ± 0.24 and 3.31 ± 0.1.
The corresponding values for IDSSNLPLQAQQQLYGG [SWI1] are 2.91 ± 0.057, 3.1 ± 0.062, 2.75 ± 0.077 and 2.87 ± 0.043.
The corresponding values for IDYSNSQIRLYAKFKRN [RGR1] are 3.1 ± 0.093, 2.46 ± 0.1, 2.45 ± 0.091 and 2.8 ± 0.057.
IEAASTTQDQCKLTLDI [RPB8]: the protein stability index reads like this: (doa10∆) 2.92 ± 0.06; (pdr5∆) 3.12 ± 0.077; (san1∆) 2.81 ± 0.042; (ubr1∆) 3.07 ± 0.078.
For IEAGRAALYKEVYNVIA [RPO21], in that order: 2.36 ± 0.085, 1.88 ± 0.096, 2.41 ± 0.13 and 2.82 ± 0.11.
In the case of IEAIDEYNKPNSEKFVF [ISW2], the protein stability index runs as follows: (doa10∆) 2.6 ± 0.1; (pdr5∆) 2.76 ± 0.075; (san1∆) 3.01 ± 0.092; (ubr1∆) 3.15 ± 0.075.
Turning to IEGMEQRIIKELSIRFP [ARP7], the protein stability index reads like this: (doa10∆) 3.04 ± 0.096; (pdr5∆) 3.21 ± 0.12; (san1∆) 2.84 ± 0.086; (ubr1∆) 2.26 ± 0.099.
The corresponding values for IEKTESVDKKVDSGEER [SWI3] are 3.26 ± 0.098, 3.3 ± 0.14, 3.36 ± 0.055 and 3.46 ± 0.066.
As to IELIDYDKLPAGQNATV [RET1], the protein stability index (doa10∆) was determined as 2.41 ± 0.074, the protein stability index (pdr5∆) turned out to be 1.95 ± 0.079, the protein stability index (san1∆) was 1.67 ± 0.2 and the protein stability index (ubr1∆) worked out at 2.4 ± 0.068.
As to IELLSYLVEAPWNDDYP [YML103C/NUP188], the protein stability index runs as follows: (doa10∆) 1.68 ± 0.093; (pdr5∆) 2.04 ± 0.15; (ubr1∆) 2.49 ± 0.17.
IEPLEINIQSFKDVEHI [BRR2] registered a protein stability index (doa10∆) of 2.5 ± 0.069, a protein stability index (pdr5∆) of 2.31 ± 0.062, a protein stability index (san1∆) of 2.12 ± 0.074 and a protein stability index (ubr1∆) of 2.67 ± 0.068.
The corresponding values for IEQLFPVRPVRVRHEDV [RPC53] are 2.9 ± 0.076, 2.97 ± 0.048, 2.89 ± 0.055 and 3.03 ± 0.037.
IERLTKRQFNNSYWLII [ITC1]: the protein stability index amounted to 3.01 ± 0.077 (doa10∆), 2.62 ± 0.099 (pdr5∆), 2.16 ± 0.097 (san1∆) and 2.13 ± 0.071 (ubr1∆).
For IESFVELGVSIYDFPGT [NUT2], in that order: 2.83 ± 0.081, 3.07 ± 0.095, 2.53 ± 0.09 and 2.2 ± 0.038.
For IFCVGSGQTFAYGVLDS [PRE2], in that order: 2.49 ± 0.095, 2.04 ± 0.11, 2.249 ± 0.019 and 2.33 ± 0.073.
The corresponding values for IFGSGFGSADDTYPYLT [FAS1] are 2.3 ± 0.075, 1.74 ± 0.059, 1.73 ± 0.09 and 2.1 ± 0.078.
As to IFHPMIHYSWSFILYYR [YML103C/NUP188], the protein stability index by setting is: (doa10∆) 1.74 ± 0.051; (pdr5∆) 1.68 ± 0.032; (san1∆) 1.69 ± 0.063; (ubr1∆) 1.98 ± 0.048.
As to IFNSNKAKIIPGNGKHA [SIR4], the protein stability index came out at 2.34 ± 0.11 (doa10∆), 3.13 ± 0.2 (pdr5∆), 1.9 ± 0.17 (san1∆) and 2.2 ± 0.093 (ubr1∆).
